Data reported in EP4793287A1, “TUMOR MICROENVIRONMENT SPECIFICALLY ACTIVATED CD47 ANTIBODY” (Affinity (Shanghai) Biopharmaceutical Co., Ltd., priority 2023, dated 2025).

How the values were obtained:
[1] = tested on: Human Burkitt's lymphoma RAJI cells; assay: In vivo efficacy, subcutaneous RAJI transplanted tumor model; parameters: species or system NOD-SCID mice; details: for T/C ratio / TGI inhibition rate: after 31 days of treatment
Experimental: Human Burkitt's lymphoma RAJI cells were subcutaneously transplanted into NOD-SCID mice to establish an in vivo model. RAJI cells were cultured according to standard culture conditions and were collected during the exponential growth phase for counting. Each mouse was inoculated on the right flank with 1×10^7 human Burkitt's lymphoma RAJI cells (suspended in 0.1 ml of basal medium). After inoculation, when the tumors grew to 80-114 mm^3 (7 days post-tumor implantation), the mice were randomly grouped based on body weight and tumor volume. The experimental groups were divided as follows:
Treatment was started on the day of grouping. Mice were weighed, and tumor volumes were measured twice a week. Tumor volume was calculated using the formula: tumor volume = 1/2 × length × width × width (mm^3). The tumor growth inhibition rate TGI (%) was calculated as [1 - (Tt - T0) / (Ct - C0)] × 100%. The tumor inhibition rate T/C (%) was calculated as (Tt/T0) / (Ct/C0) × 100%. T0 represents the tumor volume of the test antibody group at the time of grouping; Tt represents the tumor volume of the test antibody group at each measurement; C0 represents the average tumor volume of the PBS group at the time of grouping; Ct represents the average tumor volume of the PBS group at each measurement.

CHOK1-CD47 cells = target: T1, CHOK1-CD47 cells (Homo sapiens, UniProt Q08722); assay: FACS binding of CD47 antibodies to CHOK1-CD47 cells; details: Example 4.3
T1 construct: expressed in transfected cells; host or cells: CHO-K1 (CHOK1-CD47, puromycin selection)
Experimental: The desired overexpressing cell line, CHOK1-CD47 (cultured in RPMI-1640 (ATCC Modification, Gibco, Cat# A10491-01) + 10% FBS (BI, Cat# 04-001-1A) + 1× P/S + 6 µg/ml Puromycin (Gibco, Cat# a1113803, 10 × 1 ml (10 mg/ml))), was expanded to the logarithmic phase. Cells were digested, collected, and pipetted to create a single-cell suspension, followed by centrifugation and removal of the supernatant. The cells were resuspended in FACS buffer (PBS + 2% FBS) and counted, and the cell density was adjusted to 2×10^6/ml. 100 µl/well of this suspension was added to a 96-well plate (Corning, Cat# 3799). […] After three washes with FACS buffer by centrifugation, the cells were resuspended in 200 µl/well of FACS buffer and analyzed using FACS (BECKMAN COULTER, CytoFLEX). Data were fitted and the results were analyzed using software (GraphPad Prism 8).
The desired overexpressing cell line, CHOK1-CD47 (cultured in RPMI-1640 (ATCC Modification, Gibco, Cat# A10491-01) + 10% FBSThe (BI, Cat# 04-001-1A) + 1× P/S + 6 µg/ml Puromycin (Gibco, Cat# A1113803, 10 × 1 ml (10 mg/ml))), was expanded to the logarithmic phase. […] After three washes with FACS buffer by centrifugation, the cells were resuspended in 200 µl/well of FACS buffer and analyzed using FACS (BECKMAN COULTER, CytoFLEX). Data were fitted and the results were analyzed using software (GraphPad Prism 8).

T1 sequence (Q08722 19-323): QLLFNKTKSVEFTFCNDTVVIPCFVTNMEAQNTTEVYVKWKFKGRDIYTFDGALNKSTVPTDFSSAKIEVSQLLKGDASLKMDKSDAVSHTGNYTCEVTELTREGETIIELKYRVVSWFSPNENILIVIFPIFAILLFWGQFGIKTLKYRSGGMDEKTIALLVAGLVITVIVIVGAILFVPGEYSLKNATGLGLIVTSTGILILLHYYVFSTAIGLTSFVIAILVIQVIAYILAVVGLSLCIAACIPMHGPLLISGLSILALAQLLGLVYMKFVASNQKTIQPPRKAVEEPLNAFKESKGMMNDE

B1: CD47 TMEAbody: CD47 TMEAbody conjugated with PEG of approximately 20K molecular weight (i.e., PEG20K) (conjugate)
VH: QQQLEESGGGLVKPEGSLTLTCTASGFSFSSGYDMCWVRQAPGRGLEWIACIYTRSSGGTCYASWAKGRFTISKTSSTVDLRMTSLTAADTATYFCAGGRSSYRLNLWGQGALVTVSS
VL: DVVMTQTPSPVEAAVGGTVTIKCQASQSISNELSWYQQKPGQPPKLLIYRASTLESGVSSRFKGSGSGTEFTLTISDLECADAATYYCQSTFYGDYGNAFGGGTEVVVK
Tumor Volume ([1]; 0.3 mg/kg, D0): 94.56 mm^3 | Tumor Volume ([1]; 0.3 mg/kg, D3): 123.83 mm^3 | Tumor Volume ([1]; 0.3 mg/kg, D7): 147.44 mm^3 | Tumor Volume ([1]; 0.3 mg/kg, D10): 232.04 mm^3 | Tumor Volume ([1]; 0.3 mg/kg, D14): 358.82 mm^3 | Tumor Volume ([1]; 0.3 mg/kg, D17): 511.34 mm^3 | Tumor Volume ([1]; 0.3 mg/kg, D21): 849.95 mm^3 | Tumor Volume ([1]; 0.3 mg/kg, D24): 1156.48 mm^3 | Tumor Volume ([1]; 0.3 mg/kg, D28): 1887.63 mm^3 | Tumor Volume ([1]; 0.3 mg/kg, D31): 2532.90 mm^3 | T/C ratio ([1]; 0.3 mg/kg): 93.73% | TGI inhibition rate ([1]; 0.3 mg/kg): 6.45% | Tumor Volume ([1]; 1 mg/kg, D0): 94.25 mm^3 | Tumor Volume ([1]; 1 mg/kg, D3): 100.17 mm^3 | Tumor Volume ([1]; 1 mg/kg, D7): 116.36 mm^3 | Tumor Volume ([1]; 1 mg/kg, D10): 162.08 mm^3 | Tumor Volume ([1]; 1 mg/kg, D14): 214.12 mm^3 | Tumor Volume ([1]; 1 mg/kg, D17): 307.27 mm^3 | Tumor Volume ([1]; 1 mg/kg, D21): 384.91 mm^3 | Tumor Volume ([1]; 1 mg/kg, D24): 485.51 mm^3 | Tumor Volume ([1]; 1 mg/kg, D28): 679.76 mm^3 | Tumor Volume ([1]; 1 mg/kg, D31): 890.40 mm^3 | T/C ratio ([1]; 1 mg/kg): 33.06% | TGI inhibition rate ([1]; 1 mg/kg): 69.46% | Tumor Volume ([1]; 3 mg/kg, D0): 93.15 mm^3 | Tumor Volume ([1]; 3 mg/kg, D3): 91.90 mm^3 | Tumor Volume ([1]; 3 mg/kg, D7): 81.07 mm^3 | Tumor Volume ([1]; 3 mg/kg, D10): 87.74 mm^3 | Tumor Volume ([1]; 3 mg/kg, D14): 92.16 mm^3 | Tumor Volume ([1]; 3 mg/kg, D17): 91.91 mm^3 | Tumor Volume ([1]; 3 mg/kg, D21): 129.68 mm^3 | Tumor Volume ([1]; 3 mg/kg, D24): 117.69 mm^3 | Tumor Volume ([1]; 3 mg/kg, D28): 125.24 mm^3 | Tumor Volume ([1]; 3 mg/kg, D31): 120.05 mm^3 | T/C ratio ([1]; 3 mg/kg): 4.51% | TGI inhibition rate ([1]; 3 mg/kg): 98.97% | tumor growth inhibition ([1]; 0.3-3 mg/kg): significant tumor growth inhibition | changes in body weight ([1]; during the treatment period): No significant changes in body weight | binding to cells lower compared to 70H1 (CHOK1-CD47 cells): approximately 20 fold
